Literature values in PMC7228754.
pKd: −log10 of the molar value.

Target: Rab1b (Homo sapiens) (UniProt Q9H0U4)
Sequence (Q9H0U4 whole entry): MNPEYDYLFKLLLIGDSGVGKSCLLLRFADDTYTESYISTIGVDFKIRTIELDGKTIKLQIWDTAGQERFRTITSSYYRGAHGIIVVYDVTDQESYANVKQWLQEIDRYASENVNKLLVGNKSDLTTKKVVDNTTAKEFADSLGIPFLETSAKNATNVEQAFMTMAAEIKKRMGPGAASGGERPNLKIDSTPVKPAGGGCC

Chain of AnkX (Q5ZXN6 whole entry): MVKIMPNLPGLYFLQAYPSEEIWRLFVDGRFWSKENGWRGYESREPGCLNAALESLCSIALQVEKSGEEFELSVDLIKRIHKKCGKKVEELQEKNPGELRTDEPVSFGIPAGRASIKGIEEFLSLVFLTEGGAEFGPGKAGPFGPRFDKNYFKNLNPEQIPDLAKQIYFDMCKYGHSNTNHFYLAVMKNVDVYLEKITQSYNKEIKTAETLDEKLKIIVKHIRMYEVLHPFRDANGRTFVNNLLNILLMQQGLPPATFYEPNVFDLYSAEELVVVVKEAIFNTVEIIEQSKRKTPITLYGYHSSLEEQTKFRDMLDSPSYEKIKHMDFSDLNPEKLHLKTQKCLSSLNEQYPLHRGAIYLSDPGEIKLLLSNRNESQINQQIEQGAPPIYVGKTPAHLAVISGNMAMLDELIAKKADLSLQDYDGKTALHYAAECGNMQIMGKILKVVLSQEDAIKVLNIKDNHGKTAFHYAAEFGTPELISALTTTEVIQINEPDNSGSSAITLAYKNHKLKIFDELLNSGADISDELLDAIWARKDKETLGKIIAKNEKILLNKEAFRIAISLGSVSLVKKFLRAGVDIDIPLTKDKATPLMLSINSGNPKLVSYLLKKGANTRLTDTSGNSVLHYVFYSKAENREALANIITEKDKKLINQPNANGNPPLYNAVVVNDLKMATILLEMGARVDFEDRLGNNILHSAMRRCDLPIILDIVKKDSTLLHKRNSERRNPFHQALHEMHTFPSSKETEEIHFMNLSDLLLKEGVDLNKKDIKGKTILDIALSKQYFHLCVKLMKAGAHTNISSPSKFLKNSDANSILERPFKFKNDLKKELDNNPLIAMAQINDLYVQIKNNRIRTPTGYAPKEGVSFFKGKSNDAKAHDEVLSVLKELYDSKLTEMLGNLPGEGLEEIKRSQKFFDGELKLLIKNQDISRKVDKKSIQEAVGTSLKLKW

For AnkX (from UniProt Q5ZXN6), the pKd is listed as 3.91.
